Laboratory results: PMC314469, “Protein Interaction Networks by Proteome Peptide Scanning” (PLoS Biology, 2004)

T1: Boi1 SH3 (BOI1_YEAST), P38041
T1 chain: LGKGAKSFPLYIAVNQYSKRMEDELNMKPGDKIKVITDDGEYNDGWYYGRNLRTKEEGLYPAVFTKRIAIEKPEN

T2: Boi2 SH3 (BOI2_YEAST), P39969
T2 chain: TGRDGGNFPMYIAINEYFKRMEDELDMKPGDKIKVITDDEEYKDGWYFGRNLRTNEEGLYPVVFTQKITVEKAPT

T3: Rvs167 SH3 (RV167_YEAST), P39743
T3 chain: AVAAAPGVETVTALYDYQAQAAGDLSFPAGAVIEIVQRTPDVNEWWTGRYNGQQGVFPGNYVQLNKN

T4: Yfr024 SH3 (LSB3_YEAST), P43603
T4 chain: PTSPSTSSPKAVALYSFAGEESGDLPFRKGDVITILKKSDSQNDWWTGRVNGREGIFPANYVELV

T5: Yhr016c SH3 (YSC84_YEAST), P32793
T5 chain: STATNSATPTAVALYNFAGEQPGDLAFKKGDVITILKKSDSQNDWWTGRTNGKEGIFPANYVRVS


What was measured:
Test in all cases: SPOT array
[1] = target: T1, Boi1 SH3 (BOI1_YEAST), P38041
[2] = target: T2, Boi2 SH3 (BOI2_YEAST), P39969
[3] = target: T3, Rvs167 SH3 (RV167_YEAST), P39743
[4] = target: T4, Yfr024 SH3 (LSB3_YEAST), P43603
[5] = target: T5, Yhr016c SH3 (YSC84_YEAST), P32793

Row | normalised SPOT signal, Boehringer light units (BLU); mean over the file's lines of this peptide [1] | normalised SPOT signal, Boehringer light units (BLU); mean over the file's lines of this peptide [2] | normalised SPOT signal, Boehringer light units (BLU); mean over the file's lines of this peptide [3] | normalised SPOT signal, Boehringer light units (BLU); mean over the file's lines of this peptide [4] | normalised SPOT signal, Boehringer light units (BLU); mean over the file's lines of this peptide [5] | Binder
1 | 25.5 | 83.4 | 50.9 | 2110 | 148 | RYKPTPPLKKRYDY [YPL074W 335-348]
2 | 33.8 | 54.4 | 105 | 2060 | 896 | SGKPLFPGRDYHHQ [YGR040W 221-234]
3 | 32.5 | 26.6 | 40.3 | 52.2 | 303 | SEEPTSPTRQVNPE [YER032W 443-456]
4 | 577 | 65.5 | 25500 | 32900 | 30000 | SGPPLLPPRNTMKN [YJR083C 215-228]
5 | 109 | 28 | 196 | 4000 | 407 | SGKPKKPYRRWTPE [YDR464W 666-679]
6 | 72.3 | 33.1 | 20100 | 49200 | 43500 | SALPILPKREVVTR [YGL028C 19-32]
7 | 46400 | 10000 | 77800 | 49400 | 97900 | SASPTLPTRRSRRL [YDL156W 62-75]
8 | 41.3 | 59.9 | 27.8 | 8.4 | 50.7 | SDLPSSPIKAPNVE [YHR164C 232-245]
9 | 342 | 350 | 232 | 15400 | 998 | SFAPFFPTKRRGSW [YOR254C 500-513]
10 | 111 | 21.9 | 10 | 3670 | 104 | SHAPTKPTKTYKKW [YOR059C 252-265]
11 | 75.4 | 28.7 | 68.3 | 322 | 290 | SFVPFPPFKLLTFD [YPR071W 44-57]
12 | 873 | 141 | 73 | 2690 | 31.6 | SAIPITPTKRIRRN [YJL194W 2-15]
13 | 80.9 | 85 | 50.4 | 1340 | 99.3 | SHQPYLPIKNKNIV [YDL203C 329-342]
14 | 238 | 37.5 | 48.9 | 186 | 156 | SAFPQSPIRAYGST [YGL197W 1382-1395]
15 | 138 | 39.8 | 20.6 | 4580 | 375 | SELPTRPSKSKTYN [YNL139C 1447-1460]
16 | 514 | 105 | 67.3 | 2420 | 543 | SASPYRPQRLPAKF [YDL033C 13-26]
17 | 123 | 56.3 | 50.3 | 774 | 136 | SHLPLIPEKIKSLK [YDR419W 203-216]
18 | 94.4 | 77.6 | 51.8 | 94.3 | 46.4 | SDTPASPSKVQSFD [YMR182C 187-200]
19 | 54.4 | 38.8 | 24.9 | 196 | 158 | SENPLLPEKLSQSK [YNR016C 154-167]
20 | 138 | 84.8 | 29 | 2620 | 305 | SGPPPRPKKPSTLK [YNL138W 352-365]
21 | 110 | 53.6 | 100 | 150 | 377 | SDKPLTPTKTSSTL [YER143W 341-354]
22 | 1670 | 37.1 | 15.8 | 440 | 0 | SELPKSPYRQKPTQ [YHR184W 124-137]
